How the values were obtained:
[1] = molecular target: triple-helical peptide II-27-B (II-27-derived sequence with GVOGEA within (GPP)5 hosts) (O in the letters is hydroxyproline); experiment: real-time label-free cell adhesion
[2] = molecular target: triple-helical peptide II-27-C (II-27-derived sequence with GVOGEA within (GPP)5 hosts) (O in the letters is hydroxyproline); experiment: real-time label-free cell adhesion

B1: integrin α1β1 on rat pheochromocytoma PC12 cells (receptor, rat (endogenous in PC12))
chain 1: FNVDVKNSMSFSGPVEDMFGYTVQQYENEEGKWVLIGSPLVGQPKARTGDVYKCPVGRERAMPCVKLDLPVNTSIPNVTEIKENMTFGSTLVTNPNGGFLACGPLYAYRCGHLHYTTGICSDVSPTFQVVNSFAPVQECSTQLDIVIVLDGSNSIYPWESVIAFLNDLLKRMDIGPKQTQVGIVQYGENVTHEFNLNKYSSTEEVLVAANKIGRQGGLQTMTALGIDTARKEAFTEARGARRGVKKVMVIVTDGESHDNYRLKQVIQDCEDENIQRFSIAILGHYNRGNLSTEKFVEEIKSIASEPTEKHFFNVSDELALVTIVKALGERIFALEATADQSAASFEMEMSQTGFSAHYSQDWVMLGAVGAYDWNGTVVMQKANQMVIPHNTTFQTEPAKMNEPLASYLGYTVNSATIPGDVLYIAGQPRYNHTGQVVIYKMEDGNINILQTLGGEQIGSYFGSVLTTIDIDKDSYTDLLLVGAPMYMGTEKEEQGKVYVYAVNQTRFEYQMSLEPIRQTCCSSLKDNSCTKENKNEPCGARFGTAIAAVKDLNVDGFNDVVIGAPLEDDHAGAVYIYHGSGKTIREAYAQRIPSGGDGKTLKFFGQSIHGEMDLNGDGLTDVTIGGLGGAALFWARDVAVVKVTMNFEPNKVNIQKKNCRVEGKETVCINATMCFHVKLKSKEDSIYEADLQYRVTLDSLRQISRSFFSGTQERKIQRNITVRESECIRHSFYMLDKHDFQDSVRVTLDFNLTDPENGPVLDDALPNSVHEHIPFAKDCGNKERCISDLTLNVSTTEKSLLIVKSQHDKFNVSLTVKNKGDSAYNTRTVVQHSPNLIFSGIEEIQKDSCESNQNITCRVGYPFLRAGETVTFKIIFQFNTSHLSENAIIHLSATSDSEEPLESLNDNEVNISIPVKYEVGLQFYSSASEHHISVAANETIPEFINSTEDIGNEINVFYTIRKRGHFPMPELQLSISFPNLTADGYPVLYPIGWSSSDNVNCRPRSLEDPFGINSGKKMTISKSEVLKRGTIQDCSSTCGVATITCSLLPSDLSQVNVSLLLWKPTFIRAHFSSLNLTLRGELKSENSSLTLSSSNRKRELAIQISKDGLPGRVPLWVILLSAFAGLLLLMLLILALWKIGFFKRPLKKKMEK
chain 2: QTDKNRCLKANAKSCGECIQAGPNCGWCTNTTFLQEGMPTSARCDDLEALKKKGCHPSDIENPRGSQTIKKNKNVTNRSKGMAEKLRPEDITQIQPQQLLLKLRSGEPQKFTLKFKRAEDYPIDLYYLMDLSYSMKDDLENVKSLGTDLMNEMRRITSDFRIGFGSFVEKTVMPYISTTPAKLRNPCTSEQNCTSPFSYKNVLSLTDRGEFFNELVGQQRISGNLDSPEGGFDAIMQVAVCGSLIGWRNVTRLLVFSTDAGFHFAGDGKLGGIVLPNDGQCHLENNVYTMSHYYDYPSIAHLVQKLSENNIQTIFAVTEEFQPVYKELKNLIPKSAVGTLSGNSSNVIQLIIDAYNSLSSEVILENSKLPDGVTINYKSYCKNGVNGTGENGRKCSNISIGDEVQFEISITANKCPNKESENQLKLNPLGFTEEVEVVLQFICKCNCQSHGIPASPKCHEGNGTFECGACRCNEGRVGRHCECSTDEVNSEDMDAYCRKENSSEICSNNGECVCGQCVCRKRENTNEIYSGKFCECDNFNCDRSNGLICGGNGVCRCRVCECYPNYTGSACDCSLDTVPCVATNGQICNGRGICECGACKCTDPKFQGPTCETCQTCLGVCAEHKECVQCRAFNKGEKKDTCAQECSHFNLTKVESREKLPQPVQVDPVTHCKEKDIDDCWFYFTYSVNSKGEAHVHVVETPDCPTGPDIIPIVAGVVAGIVLIGLALLLIWKLLMIIHDRREFAKFEKEKMNAKWDTGENPIYKSAVTTVVNPKYEGK
With B1 the “adhesion relative to that on II-27” value [1] was ~40% and the “adhesion relative to that on II-27” value [2] was ~40%.

Reference: publication PMC3406685 (The Journal of Biological Chemistry, 2012)
